Substitutions are numbered along the chain they refer to. Numbers in names are those of the source.
T1: CD96 (UniProt P40200)
T1 sequence (looked up): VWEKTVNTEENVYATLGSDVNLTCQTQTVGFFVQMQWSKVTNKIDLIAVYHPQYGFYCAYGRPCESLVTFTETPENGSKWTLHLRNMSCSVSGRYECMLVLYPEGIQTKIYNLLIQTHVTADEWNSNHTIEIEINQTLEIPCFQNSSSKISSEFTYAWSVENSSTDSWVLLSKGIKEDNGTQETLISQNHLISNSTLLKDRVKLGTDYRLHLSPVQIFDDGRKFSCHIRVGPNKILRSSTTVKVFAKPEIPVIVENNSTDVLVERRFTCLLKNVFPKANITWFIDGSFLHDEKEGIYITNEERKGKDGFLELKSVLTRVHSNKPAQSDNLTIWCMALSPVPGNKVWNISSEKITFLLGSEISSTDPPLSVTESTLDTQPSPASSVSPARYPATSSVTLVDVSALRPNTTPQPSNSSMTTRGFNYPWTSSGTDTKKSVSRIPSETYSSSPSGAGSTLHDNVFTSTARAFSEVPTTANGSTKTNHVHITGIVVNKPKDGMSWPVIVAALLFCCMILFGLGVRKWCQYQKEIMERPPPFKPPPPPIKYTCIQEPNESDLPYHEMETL

T2: CD226 (human) (UniProt Q15762)
T2 sequence: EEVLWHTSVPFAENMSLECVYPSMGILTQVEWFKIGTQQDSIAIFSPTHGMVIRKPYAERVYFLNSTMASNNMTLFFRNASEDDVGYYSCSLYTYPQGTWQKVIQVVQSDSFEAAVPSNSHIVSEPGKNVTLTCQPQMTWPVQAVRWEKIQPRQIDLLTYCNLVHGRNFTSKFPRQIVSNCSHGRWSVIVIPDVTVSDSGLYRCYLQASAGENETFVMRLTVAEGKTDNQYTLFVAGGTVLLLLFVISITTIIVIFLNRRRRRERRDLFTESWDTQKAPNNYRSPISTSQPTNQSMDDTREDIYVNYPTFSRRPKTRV

T3: TIGIT (human) (UniProt Q495A1)
T3 sequence: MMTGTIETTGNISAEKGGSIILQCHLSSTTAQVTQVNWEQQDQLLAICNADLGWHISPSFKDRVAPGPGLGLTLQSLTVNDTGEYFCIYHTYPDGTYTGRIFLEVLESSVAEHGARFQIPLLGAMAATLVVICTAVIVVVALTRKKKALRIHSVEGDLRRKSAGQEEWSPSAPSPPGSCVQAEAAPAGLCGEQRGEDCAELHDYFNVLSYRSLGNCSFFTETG

B1: CD155 P18S, P64S, F91S IgV-Fc (Fc fusion, not shown: a dimerising Fc or GST; small tags and cut ends)
chain: PGTGDVVVQAPTQVSGFLGDSVTLPCYLQVPNMEVTHVSQLTWARHGESGSMAVFHQTQGSSYSESKRLEFVAARLGAELRNASLRMSGLRVEDEGNYTCLFVTFPQGSRSVDIWL
B2: CD155 variant IgV-Fc P18T, M36T, S65A, S67E, L79Q, A81T, F91S, G111R (Fc fusion, not shown: a dimerising Fc or GST; small tags and cut ends)
chain: B1 chain with S15T, M33T, S61P, S62A, S64E, L76Q, A78T, G108R
B3: CD155 P18S, F91S, L104P IgV-Fc (Fc fusion, not shown: a dimerising Fc or GST; small tags and cut ends)
chain: B1 chain with S61P, L101P
B4: CD155 P18T, F91S, V115A IgV-Fc (Fc fusion, not shown: a dimerising Fc or GST; small tags and cut ends)
chain: B1 chain with S15T, S61P, V112A
B5: CD155 P18S, Y30C, F91S IgV-Fc (Fc fusion, not shown: a dimerising Fc or GST; small tags and cut ends)
chain: B1 chain with Y27C, S61P
B6: CD155 P18T, S42P, F91S IgV-Fc (Fc fusion, not shown: a dimerising Fc or GST; small tags and cut ends)
chain: B1 chain with S15T, S39P, S61P
B7: CD155 L44P IgV-Fc (Fc fusion, not shown: a dimerising Fc or GST; small tags and cut ends)
chain: B1 chain with S15P, L41P, S61P, S88F
B8: CD155 P18T, Q60K IgV-Fc (Fc fusion, not shown: a dimerising Fc or GST; small tags and cut ends)
chain: B1 chain with S15T, Q57K, S61P, S88F
B9: CD155 R94H IgV-Fc (Fc fusion, not shown: a dimerising Fc or GST; small tags and cut ends)
chain: B1 chain with S15P, S61P, S88F, R91H
B10: CD155 P18T, T45A, F91S IgV-Fc (Fc fusion, not shown: a dimerising Fc or GST; small tags and cut ends)
chain: B1 chain with S15T, T42A, S61P
B11: CD155 A13E, P18S, A56V, F91S IgV-Fc (Fc fusion, not shown: a dimerising Fc or GST; small tags and cut ends)
chain: B1 chain with A10E, A53V, S61P
B12: CD155 variant IgV-Fc V11A, P18S, L79P, F91S, L104M, G111R (Fc fusion, not shown: a dimerising Fc or GST; small tags and cut ends)
chain: B1 chain with V8A, S61P, L76P, L101M, G108R
B13: CD155 variant IgV-Fc P18T, D23G, S24A, N35D, H49L, L79P, F91S, L104M, G111R (Fc fusion, not shown: a dimerising Fc or GST; small tags and cut ends)
chain: B1 chain with S15T, D20G, S21A, N32D, H46L, S61P, L76P, L101M, G108R
B14: CD155 variant IgV-Fc V9L, P18S, Q60R, V75L, L79P, R89K, F91S, L104E, G111R (Fc fusion, not shown: a dimerising Fc or GST; small tags and cut ends)
chain: B1 chain with V6L, Q57R, S61P, V72L, L76P, R86K, L101E, G108R
B15: CD155 variant IgV-Fc T15S, P18S, Y30H, Q32L, Q62R, L79P, F91S, T107M (Fc fusion, not shown: a dimerising Fc or GST; small tags and cut ends)
chain: B1 chain with T12S, Y27H, Q29L, Q59R, S61P, L76P, T104M
B16: CD155 variant IgV-Fc P18T, S52A, V57A, Q60R, Q62K, S65C, L79P, F91T, N100Y, T107M (Fc fusion, not shown: a dimerising Fc or GST; large carriers; small tags and cut ends)
chain: PGTGDVVVQAPTQVTGFLGDSVTLPCYLQVPNMEVTHVSQLTWARHGEAGSMAAFHRTKGPCYSESKRLEFVAARPGAELRNASLRMTGLRVEDEGYYTCLFVMFPQGSRSVDIWL

Experiments:
CD96 [1] = biological target: T1, CD96; test: flow cytometry, cells
CD226 (human) [2] = biological target: T2, CD226 (human); test: flow cytometry, transfected cells
CD96 [3] = biological target: T1, CD96; test: flow cytometry, CD96-expressing cells
CD226 (human) [4] = biological target: T2, CD226 (human); test: flow cytometry, CD226-expressing cells
CD112R (human) = CD112R (human) (UniProt Q6DKI7); test: flow cytometry, cells expressing target, 25 nM
CD226 (human) [5] = biological target: T2, CD226 (human); test: flow cytometry, cells expressing target, 25 nM
TIGIT (human) = biological target: T3, TIGIT (human); test: flow cytometry, cells expressing target, 25 nM
CD96 [6] = biological target: T1, CD96; test: flow cytometry, cells expressing target, 25 nM

Sequence of CD112R (human) (Q6DKI7 whole entry): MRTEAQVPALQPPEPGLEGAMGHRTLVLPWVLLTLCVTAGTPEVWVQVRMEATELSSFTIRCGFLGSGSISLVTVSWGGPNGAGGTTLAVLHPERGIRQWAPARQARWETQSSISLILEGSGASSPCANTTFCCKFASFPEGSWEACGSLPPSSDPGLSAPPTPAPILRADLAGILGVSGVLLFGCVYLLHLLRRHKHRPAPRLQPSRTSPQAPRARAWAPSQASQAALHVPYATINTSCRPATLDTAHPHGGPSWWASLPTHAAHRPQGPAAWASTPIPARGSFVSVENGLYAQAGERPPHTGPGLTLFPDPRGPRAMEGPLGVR

Binder	MFI (CD96 [1])	MFI (CD226 (human) [2])	other results
B1	140000	498000	
B2			MFI at 11.1 nM (CD96 [3]): 963 MFI; MFI at 11.1 nM (CD226 (human) [4]): 1130 MFI
B3	10900	26200	
B4	22700	38500	
B5	56900	382000	
B6	135000	554000	
B7	152000	581000	
B8	154000	238000	
B9	11700	18900	
B10	191000	436000	
B11	119000	358000	
B12			MFI at 11.1 nM (CD96 [3]): 923 MFI; MFI at 11.1 nM (CD226 (human) [4]): 974 MFI
B13			MFI at 11.1 nM (CD226 (human) [4]): 987 MFI
B14			MFI at 11.1 nM (CD96 [3]): 959 MFI; MFI at 11.1 nM (CD226 (human) [4]): 986 MFI
B15			MFI at 25 nM (CD112R (human)): 1060 MFI; MFI at 25 nM (CD226 (human) [5]): 2090 MFI; MFI at 25 nM (TIGIT (human)): 16200 MFI
B16			MFI at 25 nM (CD112R (human)): 908 MFI; MFI at 25 nM (CD96 [6]): 3790 MFI; MFI at 25 nM (TIGIT (human)): 187000 MFI
